We go through 24 sequences from the DeepSol protein solubility set.

The nature of this data set: soluble on expression in E. coli; label from the status in PepcDB or PDB records.
Turning to “MVETPPAWVLLKRARERIYTLPPDFPGFRARLGLCLDGVWYVGAVEAEGFAPKTLGLFGEAGAIAEKELGSLLGHRRPAPFEEGEGRYPMRLFAEGPLGTGIALEDPFRSRIWVKEGRLALIERHLPEGSFRIHLETWREVGERLLPHRFLLVHRDPRGHLLKVERFRDEYAQVGPYWLPVEREVVVEGEGLGVLVLRLEEVEVKG”, the “soluble on expression in E. coli” value is listed as “soluble”.
The result for “MSLETFLCGKESCNKGYIRHPWYGKKVGYIGDSITDPNCYGDNIKKYWDFLKEWLDITPYVYGVSGRQWNDVPRQAEQLKKEHGEEVDAIVVLMGTNDFNSSVPVGTWFAEKEEQVMAARGETKKLETRKRRVPIMTNDTYKGRINIGLSHLKKLFPDKQIVLLTPLHRSLAEFGEKNVQPDESYQNKCGEYVDAYVQAIKEAGNLWGVPVIDFNSVTGMNPMIEEQLIYFYDSGYDRLHPNTNGQERMAHTLMYQLLSLPASFEGHHHHHH” reads “soluble”; that for “MAHHHHHHMAHVLQKCAHVLGISLSATGVYYAKGKMPYPATSSNEGTSSAESMGGSPGKAAKSNTVSAVKESQAATRKSKAQGNSVATAAVHTPSPPSSTEMNATNLDATSPCSSAAGPVGFFFDVGLHDLPNPPRDFDVTPSALAVDGTHSSANGAVIAVRDFVSHIPPFFVPVTEVVANMPGYTAEHLEVYLNVNSLELVTVAGERYVRLYGSFGDLSLSGSEVSEKRYAHYRPDVALVAAFEAAFEGIYDKWMPLPELLRRVGPDVTAQLPYQGPAAITYFAQMQHRFAFAVREVPTTGGGAAGALSSPQFTTEAAVLLRKPGYSGLEAHSTPTPKSFQALMSLVPGDTQVDIDVVRCQLTSEVRAELSRYYDGLEGFFAAHKPVFFVPPETPTVVMRMRYRLRTQRAKLPLEEQLRIATDARDKARIRSLRRKIAFRDDPSHPLHDPENLAKEVSKHLPRRGFVHLRIFLKRNVPEELLMYMPKRMRCFFNNYPQYFTQFEYQSAGTWCLCRPDQPLPRGVIRQNFSDGDLLRLIAEFLQQRGARAASMVHTNLPFGAQEVIRRRYGGVYFFVTRYPQYFNVVLKTDRQNVKSSAVVHLIQVPSQELSDATMAASAASLNNPNAPSHDDDDHESGDDDDDEDLDDGLD”, “not soluble”.
The result for “MYSLLTLLFVLFFSGSTLLVQCGGKKKGATSAEGKSSTMGPAPGGAPAAASAQGEPEEKE” reads “not soluble”; that for “MHNKIVRIASSALTGGKLLEKLKPLTRWEVQWDPNKTKCLGITREVTFKDYETTWAFLTRVSMRSHLWGHHPLIHTSYTWVKLELHTHDIDPKDGAHSQLSDIDVRMAKRIDSYIDEMTT”, “not soluble”; that for “AHHHHHHGSPVYEINGIKPKIHPTAYVDENAVIIGDVVLEEKTSVWPSAVLRGDIERIYVGKYSNIQDNVSIHTSHGYPTEIGEYVTIGHNAVVHGAKIGNYVIIGMGAIILDGAKIGNHVIIGAGALVPPNKEIPDYSLVIGVPGKVVRQLSEEEIEWTKKNAEVYVELAEKHMKGRKKIMIYRIISHIPSIFFKPAYDLYERYLLEKVKAGVIPKHVAIIMDGNRRWARKREKPPWYGHFFGSKKLEEIVEWCHELGIRILTVYAFSTENFKRSKEEVDRLMKLFEEKFRELVTDRRVHEYGIRVNVMGRKELLPKNVREAAEEAERVTRKYNNYFLNIALAYGGRSEIVDAIKDIVNDVLEGRLKLEDINEEIVRKYLYVPNMPDPDIVIRTGGEVRISNFLLYQIAYSELFFVDVYFPEFRKIDFLRIIREFQKRERRFGR”, “soluble”.
As to “GMQKPHLLITSAGRRAKLVEYFVKEFKTGRVSTADCSPLASALYMADQHYIVPKIDEVEYIDHLLTLCQDEGVTALLTLIDPELGLLAQATERFQAIGVTVIVSPYAACELCFDKYTMYEYCLRQGIAHARTYATMASFEEALAAGEVQLPVFVKPRNGSASIEVRRVETVEEVEQLFSKNTDLIVQELLVGQELGVDAYVDLISGKVTSIFIKEKLTMRAGETDKSRSVLRDDVFELVEHVLDGSGLVGPLDFDLFDVAGTLYLSEINPRFGGGYPHAYECGVNFPAQLYRNLMHEINVPQIGQYLDDIYMLKHDTVTLISAAELQKIKR”, the “soluble on expression in E. coli” value is given as “soluble”.
The result for “MADLPSISLITATYNAAQHLPGLIESVRQQSDRAFEWIVIDGASEDGTLDLIRGAQDVITDYVSEPDFGIFHALNKGIQRATGDYYLVVGADDRLDPLAIANYKQAAASSQADLISAYIYSEKKAIIKPTGGAIWHHGVQAFITTQSVGTLIKRNLHEHYGYYSHYYPTAADALFILKVQQGGGKITTAEFIAGQYNTKGFSYRYKANLLCELFLIQKEFFPKSIQLLLLIYRLIKNYRYLLEHHHHHH” reads “not soluble”; that for “MAHHHHHHMDKISPEILAARAKLKEKMGGNLRQIGGKGSARRKIKKVHKNSMSNEKKINLILKKIGASYFGDVDEICVYKAGDTYMEFKRPKLSASLQSNTYVVTGKFTEQKIDINKIFEGLKGNKNVDMNLLEKIKNDPNIKNLLNKENNGNAKKEEGAQEAADVPDLVENFEEVSKEEQK”, “soluble”; that for “MSQLDNNLSVSVYMKGNVNNHEFEYDGIGGGDPNSGQFSLKTKLRGGKPLPFSYDIITMGFQYGFRAFTKYPEGIADYFKGSFPEAFQWNRRIEFEDGGVINMSSDITYKDKVLHGDVWALGVNFPPNGPVMKNEIVMEEPAEETLTAKNGVLVGFCPKAYLLKDGSYYYGHMTTFYRSKKSGQPLPGFHFIKHRLVKTKVEPGFKMVEQAEYATAHVCDLPKPN”, “soluble”.
The result for “MGHHHHHHSHMECETDEQKQGSDENMSECETSSVCSSSDTGLFTNDEGRQGDDEQSDWFYEGECVPGFTVPNLLPKWAPDHCSEVERMDSGLDKFSDSTFLLPSRPAQRGYHTRLNRLPGAAARCLRKGRRRLVGKETSINTLGTERISHIISDPRQKDFWLPSAGKRERNQFNPLSPLYSLDVLADASHRRCSPAHCSARQANVHWGPPCSRVIKRKRKPVATASLSSPSAVHMDAVEPTTPASQAPKSPSSEWLVRTSAAEKATDATTATFFKMPQEKSPGYS” reads “not soluble”; that for “MKSVQEKRNNTRAFKTVAKSWFATKTTWSEDYQRSVWTRLETYLFPDIGNKDIAELDTGDLLVPIKKIEKLGYLEIAMRVKQYATAIMRYAVQQKMIRFNPAYDLEGAVQKLEHHHHHH”, “soluble”.
“MSNWTTYPQKNLTQAEQLAQLIKEADALVVGIGAGMSAADGFTYIGSRFETAFPDFIAKYQFLDMLQASLFDFEDWQEYWAFQSRFVALNYLDQPVGQSYLDLKEILGTKDYHIITTNADNAFWVAGYDPHNIFHIQGEYGLWQCSQHCHQQTYKDDTVIRQMIAEQKNMKVPGQLIPHCPECEAPFEINKRNEEKGMVEDADFHAQKARYEAFLSEHKEGKVLYLEIGVGHTTPQFIKHPFWKRVSENPNALFVTLNHKHYRIPLSIRRQSLELTEHIAQLISATKTIYQKS”: the “soluble on expression in E. coli” value was “not soluble”.
Regarding “MRGSHHHHHHGSAPIKVGDAIPAVEVFEGEPGNKVNLAELFKGKKGVLFGVPGAFTPGCSKTHLPGFVEQAEALKAKGVQVVASLSVNDAFVTGEWGRAHKAEGKVRLLADPTGAFGKETDLLLDDSLVSIFGNRRLKRFSMVVQDGIVKALNVEPDGTGLTCSLAPNIISQL”, the “soluble on expression in E. coli” value is “soluble”.
To “MAHHHHHHMRQTGSFQPFFLRGKVVHGKGRGGSQLGFPTANIGLDKDVMECLQPYKNLVVYGWGTVSQVPGKERESFGPYPFAASIGFNMQFDEKTLTVEPYFLHEFGWDFYGAVVKIIVLGEIRSMGSFHSLQALVDTIKSDVQFTRDMLQKPQLQEFSRHSLFESPSSTIPYFEDLPDE” belongs “soluble”; to “GSHGLCKNLLQEYAQKMNYAIPLYQCQKVETLGRVTQFTCTVEIGGIKYTGAATRTKKDAEISAGRTALLAIQSDT”, “soluble”.
The result for “MGGSHHHHHHGMASALSQATKRKHVVKEVLGEHIVPSNQQQIVRVLRTPGNNLHEVETAQGQRFLVSMPSKYRKNIWIKRGDFLIVDPIEEGEKVKAEISFVLCKDHVRSLQKEGFWPEAFSEVAEKHNNRNRQTQPELPAEPQLSGEESSSEDDSDLFVNTNRRQYHESEEESEEEEAA” reads “not soluble”.
To “MSLDPEDVYDGGYGSKHSPVQLRIGNGGAGQSGLVKELADAFIKSKVDSGSAPFKVAWYKSDTTVTINYLKDGIVDVGITYSPVAERISIKHGISESPSYYAFRDHFMLIGPPSNPAKLSGDSDIADMFSKMHDAAEAGNTKPPVRFLSRYDKSATNIKEAELWLSIGQVPWATAYSTWYHQYITFPIQALTAAILLREYTITDYGTYLSIPRGLRDQMVIYKKGTNDADDPLLNPAHLLVGARAKNAEMAKEFAKWLVSKEGGQKVIEGFKKDGQQLYSPAPYRHEGHHHHHH” belongs “soluble”.
For the sequence “MGSDKIHHHHHHMAKIESNDSHLRGILKDELYYQIPIYQRPYQWTEENCEKLLDDLFFNYEDDREGDYFCGSLVLIAISKDSKATTYDVVDGQQRLSTFILLAKVLADLYNDCLDPKNLEHLQEGWKDRHTERKRLSFNTIGSNAEYDFQDALEHFNDSQASKNKNNKNNYLKNAICLKDYLMKKEIKNINDFIEWLYSNVKFITIICPNIDKALRIFNVLNARGLPLNATDIFKGELLKHAKEHEREEFVSRWNALSQKCSDNDLTMETLFSWYNLSQSGNF”, the “soluble on expression in E. coli” value is “not soluble”.
On to “MNIREIAAKCSKCGYCTTCPTYRIEGWETVSPRGKIQLALKYVDGEIDVDQKIVKDIFKCSVCGLCQEVCPVELPLIDFWEELRRTLVQKGLAPLSVHRKLREILEHHHHHH”, for which the “soluble on expression in E. coli” value is listed as “not soluble”.
To “MGSDKIHHHHHHMSKFHELTVASVTRETRDAVAVTFAVPEDLADTYRYVQGQHLTLRAGIGGEDVRRSYSICSAVQDRRLRVAIKRVDGGMFSNWANDALQPGMTLEVMPPSGHFHVPLSDTHSKHYVAFAAGSGITPMLSIIKTTLMTEPDSRFTLFYGNRASSSVLFKEELEDLKDTYLERFNLVFILSREQLDIDLFNGRIDGEKVRALLRHWVRPQDIDVAFICGPHSMMEEVSQALQENGVDKARIKRELFATSIPAARPAAHAHKQLGQQQCEVTVIQDGRTRQFTLEKNKETILDAALAQGIELPYSCKGGVCSTCRCKRIEGEVDMDVNFALEDYEVARGFILSCQSYAVTDKLVIDFDQET” belongs “not soluble”; to “MYSCTSPSGIKVSLSTPEIWEEFYPKTEMIVTRNRGRVIFPHLDYIIKGLDPGSLYSIYIHLERVDGIKYKFDAGEWKEFAKGDPILPIQYKEHPRGKRTGAEWMSEPVSFAHIKITNNPEIKDQKVILVQSMHKHIPVVTVKQVRHYKTGYQEDFSGEQFRLEATEFMVVTAYQNEILKNLKVHHNKFASGFRSNGKRRLSSDSENSENSPPKRSKLVTPPTISPQIDLPQQTPYYFNQNFVAPQNYQPQFASAQNYNFEVQNNAQLAWNMYYQKQYEFWWQQQQMMMPGQPQELKNEFQSL”, “not soluble”.
To “MTRTLASLFGPLQPMALAEDLAAPLLAMPIPEGAADPAAAARAPAAGPTVPDRFTVARGLAVVPVRGILTPNMAQYERWFGWATYHGLAETMAHLAASEDAAAIVLEIDSPGGLVCGIEAAAEAIAAAAAVKPVHALVSPLAASAAYWLASQASEIVMTPGAVAGSIGVALTAAAHVQPGANGAQIFEMSSRHARAKRPDASTEAGRAELQRSLDEAEAAFHAAVSAGRAIPAAELAARLSVTDDPQDGGATFRAPEAIRRGLADRIETRAAFYARLAARTAPKPRSPSRAFAARAAAAAALARS” belongs “not soluble”.
The result for “MLAAYRGRVMTRIAVELSLLTFVRSSELRFARWDEFDFDKSLWRIPAKREEIKGVRYSYRGMKMKEEHIVPLSRQAMILLEQLKQISGDKELLFPGDHDATKVMSENTVNSALRAMGYDTKTEVCGHGFRTMARGALGESGLWSEDAIERQLSHSERNSVRAAYIHTSEHLDERRLMVQWWADYLDANKIKPLEHHHHHH” reads “not soluble”.
